Laboratory results as given in US9175305B2, “Mutant hydroxyphenylpyruvate dioxygenase polypeptides and methods of use” (Syngenta Participations AG, priority 2009, dated 2015).
Where a chain is given by its changes, count along the chain named. In names and notes the source's numbering stands.

Columns and labels:
[1] = catalytic activity and herbicide resistance of mutants of SEQ ID NO:14 in extracts; assay type: biochemical, Avena sativa
Text: These further mutations can all be optionally combined with the resistance conferring mutations to produce catalytically active variants of HPPD herbicide resistant enzymes of the current invention.

[2] = Km and kcat of expressed HPPDs (HPLC/UV quantitation of homogentisate); assay type: biochemical, Avena sativa; details: for V217I, L271I, L271V, V258M, A326R estimated from initial rates in cell extracts, pH 7.0, 25° C., 120 μM HPP
Method: The assay solution was transferred to Chromacol 03-CVG HPLC vials, sealed and the amount of homogentisate formed in a 40 μl aliquot determined by injection onto a reverse phase Aqua C18 5μ 75×4.6 mm HPLC column running 5.5% acetonitrile 0.1% TFA (Buffer A) at 1.5 ml/min. The column was eluted at 1.5 ml/minute using a 2 minute wash in buffer A, followed by a 2 minute wash in a 30/70 mixture of buffer A and 100% Acetonitrile, and a further 3.5 minute wash in buffer A. The elution of homogentisate was monitored by UV at 292 nm and the amount formed in each reaction quantified by comparison with a standard calibration curve.
Km and Vmax values were determined (for example FIG. 1) using a non linear least squares fit using Grafit 4™ software (Erithacus Software, Middlesex, UK). Kcat values were determined by dividing the maximum rate, Vmax expressed in nmol/second by the number of nmoles of HPPD enzyme (based on the concentration determined by active-site titration).
Experiments were carried out as described for Table 4. ‘Sulc’ denotes sulcotrione and ‘nd’ means ‘no data’. For V217I, L271I, L271V, V258M and A326R, the relative values of kcat were estimated from comparisons of the initial rates in cell extracts of similarly prepared and expressed HPPDs in conventional enzyme activity assays at pH 7.0, 25° C. and at a substrate concentration of 120 μM HPP.

B1: S415K: S415K mutant of SEQ ID NO:14 (protein)
chain: MPPTPATATGAAAAAVTPEHAARSFPRVVRVNPRSDRFPVLSFHHVELWCADAASAAGRFSFALGAPLAARSDLSTGNSAHASLLLRSGALAFLFTAPYAPPPQEAATAATASIPSFSADAARTFAAAHGLAVRSVGVRVADAAEAFRVSVAGGARPAFAPADLGHGFGLAEVELYGDVVLRFVSYPDETDLPFLPGFERVSSPGAVDYGLTRFDHVVGNVPEMAPVIDYMKGFLGFHEFAEFTAEDVGTTESGLNSVVLANNSEAVLLPLNEPVHGTKRRSQIQTYLEYHGGPGVQHIALASNDVLRTLREMRARTPMGGFEFMAPPQAKYYEGVRRIAGDVLSEEQIKECQELGVLVDRDDQGVLLQIFTKPVGDRPTFFLEMIQRIGCMEKDEVGQEYQKGGCGGFGKGNFKELFKSIEDYEKSLEVKQSVVAQKS
modifications: mutant HPPD polypeptide
catalytic activity and resistance to sulcotrione relative to control, unmutated SEQ ID NO:14 [1]: neutral mutations

B2: V258I: V258I mutant of SEQ ID NO:14 (protein)
chain: B1 chain with V258I, K415S
modifications: mutant HPPD polypeptide
catalytic activity and resistance to sulcotrione relative to control, unmutated SEQ ID NO:14 [1]: neutral mutations

B3: L358M: L358M mutant of HPPD SEQ ID NO:14 (apparently the change of SEQ ID NO:24) (protein)
chain: B1 chain with L358M, K415S
modifications: mutant HPPD polypeptide
Rate: kcat relative to non-mutated HPPD SEQ ID NO:14 [2]: 0.7

B4: L269F: L269F mutant of SEQ ID NO:14 (protein)
chain: B1 chain with L269F, K415S
modifications: mutant HPPD polypeptide
catalytic activity and resistance to sulcotrione relative to control, unmutated SEQ ID NO:14 [1]: neutral mutations

B5: A326R: A326R mutant of HPPD SEQ ID NO:14 (protein)
chain: B1 chain with A326R, K415S
modifications: mutant HPPD polypeptide
Rate: kcat relative to non-mutated HPPD SEQ ID NO:14 [2]: 1.2

B6: I299M: I299M mutant of SEQ ID NO:14 (protein)
chain: B1 chain with I299M, K415S
modifications: mutant HPPD polypeptide
catalytic activity and resistance to sulcotrione relative to control, unmutated SEQ ID NO:14 [1]: neutral mutations

B7: L269M: L269M mutant of SEQ ID NO:14 (protein)
chain: B1 chain with L269M, K415S
modifications: mutant HPPD polypeptide
catalytic activity and resistance to sulcotrione relative to control, unmutated SEQ ID NO:14 [1]: neutral mutations

B8: K411T: K411T mutant of HPPD SEQ ID NO:14 (protein)
chain: B1 chain with K411T, K415S
modifications: mutant HPPD polypeptide
Rate: kcat relative to non-mutated HPPD SEQ ID NO:14 [2]: 1

B9: G254A: G254A mutant of SEQ ID NO:14 (protein)
chain: B1 chain with G254A, K415S
modifications: mutant HPPD polypeptide
catalytic activity and resistance to sulcotrione relative to control, unmutated SEQ ID NO:14 [1]: neutral mutations

B10: T372S: T372S mutant of SEQ ID NO:14 (protein)
chain: B1 chain with T372S, K415S
modifications: mutant HPPD polypeptide
catalytic activity and resistance to sulcotrione relative to control, unmutated SEQ ID NO:14 [1]: neutral mutations

B11: E416Q: E416Q mutant of SEQ ID NO:14 (protein)
chain: B1 chain with K415S, E416Q
modifications: mutant HPPD polypeptide
catalytic activity and resistance to sulcotrione relative to control, unmutated SEQ ID NO:14 [1]: neutral mutations

B12: I421L: I421L mutant of SEQ ID NO:14 (protein)
chain: B1 chain with K415S, I421L
modifications: mutant HPPD polypeptide
catalytic activity and resistance to sulcotrione relative to control, unmutated SEQ ID NO:14 [1]: neutral mutations

B13: A326S: A326S mutant of SEQ ID NO:14 (protein)
chain: B1 chain with A326S, K415S
modifications: mutant HPPD polypeptide
catalytic activity and resistance to sulcotrione relative to control, unmutated SEQ ID NO:14 [1]: neutral mutations

B14: S420A: S420A mutant of SEQ ID NO:14 (protein)
chain: B1 chain with K415S, S420A
modifications: mutant HPPD polypeptide
catalytic activity and resistance to sulcotrione relative to control, unmutated SEQ ID NO:14 [1]: neutral mutations

B15: S415Q: S415Q mutant of SEQ ID NO:14 (protein)
chain: B1 chain with K415Q
modifications: mutant HPPD polypeptide
catalytic activity and resistance to sulcotrione relative to control, unmutated SEQ ID NO:14 [1]: neutral mutations

B16: G254S: G254S mutant of SEQ ID NO:14 (protein)
chain: B1 chain with G254S, K415S
modifications: mutant HPPD polypeptide
catalytic activity and resistance to sulcotrione relative to control, unmutated SEQ ID NO:14 [1]: neutral mutations

B17: V258K: V258K mutant of SEQ ID NO:14 (protein)
chain: B1 chain with V258K, K415S
modifications: mutant HPPD polypeptide
catalytic activity and resistance to sulcotrione relative to control, unmutated SEQ ID NO:14 [1]: neutral mutations

B18: V258A: V258A mutant of SEQ ID NO:14 (protein)
chain: B1 chain with V258A, K415S
modifications: mutant HPPD polypeptide
catalytic activity and resistance to sulcotrione relative to control, unmutated SEQ ID NO:14 [1]: neutral mutations

B19: M325L: M325L mutant of HPPD SEQ ID NO:14 (protein)
chain: B1 chain with M325L, K415S
modifications: mutant HPPD polypeptide
Rate: kcat relative to non-mutated HPPD SEQ ID NO:14 [2]: 1.2

B20: V258M: V258M mutant of HPPD SEQ ID NO:14 (protein)
chain: B1 chain with V258M, K415S
modifications: mutant HPPD polypeptide
Rate: kcat relative to non-mutated HPPD SEQ ID NO:14 [2]: 1
catalytic activity and resistance to sulcotrione relative to control, unmutated SEQ ID NO:14 [1]: neutral mutations
